{"source": "patent US20060172386A1", "key": {"[1]": {"molecular_target": "recombinant extracellular domain of FGFR-3c", "assay": "SPR (BIACORE 2000), FGF-20 fixed on CM5 chip, receptor extracellular domain as analyte"}, "[2]": {"molecular_target": "recombinant extracellular domain of FGFR-2c", "assay": "SPR (BIACORE 2000), FGF-20 fixed on CM5 chip, receptor extracellular domain as analyte"}}}
{"substance": "Recombinant FGF-20 (from UniProt Q9EST9 1-212) (ligand)", "values": [{"measurement": "Kd", "setting": "[1]", "result": 217, "unit": "nM"}, {"measurement": "koff", "setting": "[1]", "result": 0.0247, "unit": "s⁻¹"}, {"measurement": "kon", "setting": "[1]", "result": 115000, "unit": "M⁻¹ s⁻¹"}, {"measurement": "Kd", "setting": "[2]", "result": 28.1, "unit": "nM"}, {"measurement": "koff", "setting": "[2]", "result": 0.0167, "unit": "s⁻¹"}, {"measurement": "kon", "setting": "[2]", "result": 595000, "unit": "M⁻¹ s⁻¹"}]}
